Measurements taken from patent publication US9403882B2, “Sulfation of Wnt pathway proteins” (priority 2010, dated 2016).
No end group written: not given here. *: point of attachment. sulfate = O=S(=O)(O)*

T1: sclerostin-LRP binding (Homo sapiens, UniProt O75197)
T1 construct: expresses LRP5 extracellular domains 1 and 2 fused to alkaline phosphatase; made in house; host or cells: LRP5R1/2-AP from transfected 293T cells (conditioned medium)
T1 sequence (O75197 32-641 limits assumed): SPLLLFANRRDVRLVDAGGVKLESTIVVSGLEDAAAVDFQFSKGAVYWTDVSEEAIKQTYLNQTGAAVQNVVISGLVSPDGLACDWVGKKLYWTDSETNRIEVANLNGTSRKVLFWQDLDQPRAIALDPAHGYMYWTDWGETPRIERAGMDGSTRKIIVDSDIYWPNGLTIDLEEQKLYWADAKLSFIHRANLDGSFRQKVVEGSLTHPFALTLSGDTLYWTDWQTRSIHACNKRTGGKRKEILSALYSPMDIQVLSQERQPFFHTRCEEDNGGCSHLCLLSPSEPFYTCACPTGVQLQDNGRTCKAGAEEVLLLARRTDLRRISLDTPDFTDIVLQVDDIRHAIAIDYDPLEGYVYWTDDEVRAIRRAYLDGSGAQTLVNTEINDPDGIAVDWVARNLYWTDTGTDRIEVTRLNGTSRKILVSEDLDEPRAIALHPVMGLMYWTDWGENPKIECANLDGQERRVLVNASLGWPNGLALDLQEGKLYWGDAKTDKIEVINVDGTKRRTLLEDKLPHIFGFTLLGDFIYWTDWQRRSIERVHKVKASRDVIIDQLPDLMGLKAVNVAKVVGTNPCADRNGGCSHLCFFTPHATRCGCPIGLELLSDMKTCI

T2: LRP5 extracellular domains 1 and 2 fused to alkaline phosphatase (Homo sapiens, UniProt O75197)
T2 construct: expresses LRP5 extracellular domains 1 and 2 fused to alkaline phosphatase; made in house; host or cells: 293T cells, transfected; concentrated conditioned medium
T2 sequence (O75197 32-641 limits assumed): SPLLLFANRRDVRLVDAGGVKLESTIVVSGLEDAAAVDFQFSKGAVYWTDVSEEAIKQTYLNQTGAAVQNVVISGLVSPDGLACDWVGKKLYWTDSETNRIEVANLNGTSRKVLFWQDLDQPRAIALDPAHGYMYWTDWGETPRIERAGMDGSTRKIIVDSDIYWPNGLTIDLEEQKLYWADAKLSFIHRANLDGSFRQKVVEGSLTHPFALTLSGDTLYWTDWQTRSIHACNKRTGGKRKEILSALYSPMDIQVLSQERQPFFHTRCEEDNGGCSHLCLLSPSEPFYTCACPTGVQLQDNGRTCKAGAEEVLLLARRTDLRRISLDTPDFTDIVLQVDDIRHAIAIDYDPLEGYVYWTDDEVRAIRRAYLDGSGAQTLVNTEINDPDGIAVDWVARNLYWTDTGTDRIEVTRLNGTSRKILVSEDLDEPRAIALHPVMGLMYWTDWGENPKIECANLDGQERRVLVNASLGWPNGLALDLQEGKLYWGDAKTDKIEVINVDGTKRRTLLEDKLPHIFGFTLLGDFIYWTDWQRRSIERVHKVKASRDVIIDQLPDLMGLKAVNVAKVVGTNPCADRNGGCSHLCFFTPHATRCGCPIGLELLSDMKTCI


How the values were obtained:
sclerostin-LRP binding = target: T1, sclerostin-LRP binding; test: Sclerostin binding to LRP in the presence of peptides; settings: 667 μM peptide concentration; FIG. 12
Protocol: Various amounts of unmodified sclerostin or the in vitro treated sclerostin from Example 1 were diluted into 80 μl of TBST buffer and added to individual wells of 96 well plates. After overnight incubation, unbound proteins were removed after which point the coated plates were blocked with 3% nonfat milk in PBS. The plates were than decanted and 0.5×LRP5R1/2AP conditioned medium was added to the plates. After 2.5 hours, the conditioned medium was removed and the 96 well plates were washed five times for three minutes with TBST. The alkaline phosphatase activity in each well was then determined using the Tropix luminescence assay kit (Invitrogen, Carlsbad, Calif.).
Sclerostin binding to LRP in the presence or absence of the sulfated or unsulfated peptides, at 667 μM peptide concentration, was tested using the binding assay essentially as described in Example 3.

[1] = target: T2, LRP5 extracellular domains 1 and 2 fused to alkaline phosphatase; test: Binding of AlkPhos-LRP5 to plate-coated sclerostin; settings: TPST-1-treated vs untreated recombinant sclerostin; FIG. 2
[2] = tested on: Wnt induced alkaline phosphatase activity; test: Wnt 3a induced alkaline phosphatase activity in 10T1/2 cells; format: cell-based; settings: 24 hours, vs untreated sclerostin, highest level of sclerostin input, FIG. 3
Protocol: Growing cultures of 10T1/2 cells were washed with PBS and trypsinized for 5 minutes. Cells were resuspended at a concentration of 6×10^5 cells/ml and 10 μl were seeded into individual wells of a Costar 96 well plate (Corning, Inc.). Wnt 3a and either the untreated sclerostin or the sclerostin from Example 1 were added and the plates were incubated at 37° C. for 24 hours. 50 μl of universal lysis buffer (from the Luciferase Reporter Gene Assay, Roche Applied Science, Indianapolis, Ind.) was added to each well at ambient temperature for 5 minutes. Detection of alkaline phosphatase was measured by the addition of 50 μl of ready-to-use CPSD with Sapphire Enhancer (Applied Biosystems) followed by an incubation at ambient temperature for 25 minutes.

Wnt signaling = test: Cell-based luciferase assay using Wnt reporter cells (Dkk1 inhibition of Wnt signaling); settings: Dkk1 from insect cells untreated (sulfated) vs chlorate treated (unsulfated); FIG. 10
Protocol: These four Dkk1 preparations were used at three concentrations in a cell-based luciferase assay using the Wnt reporter cells essentially as described in U.S. Patent Publication 2006/0198791 to determine the effect of sulfation on the ability of Dkk1 to inhibit Wnt signaling. Briefly, the cells were seeded in 96-well microtiter plates at 2×10^5 cells per well, in 50 μl assay medium. After incubation at 37° C. in a 5% CO2 atmosphere overnight, 50 μl DMEM was added to each well. Wnt3a was then added, to a final concentration of 300 ng/ml, followed by addition of either buffer, sulfated Dkk1 or unsulfated Dkk1, where Dkk1 was added to a final concentration of 0.4, 0.133 or 0.044 μg/ml. The plates were then incubated at 37° C. in a 5% CO2 atmosphere for 6 h. Luciferase substrate was then added and chemiluminescence was measured. Each treatment was performed in duplicate.

Row | Molecule | inhibition of sclerostin-LRP binding (sclerostin-LRP binding) | further results
1 | H-C-R-S-A-K-A-N-Q-A-E-L-E-N-A-Y-OH (H-HCRSAKANQAELENAY-OH) [PRN8831] | inhibition of sclerostin-LRP binding | –
2 | H-P-E-L-G-E-Y-P-E-P-P-P-E-L-E-C-NH2 (H-HPELGEYPEPPPELEC-NH2) [PRN8829] | inhibition of sclerostin-LRP binding | –
3 | PRN8830: sulfated P43, sequence of sclerostin amino acids 37-52 where 43 is the sulfation site (HPELGEY(sulfate)PEPPPELEC-NH2) | inhibition of sclerostin-LRP binding | –
4 | mouse versions of sclerostin: mouse sclerostin, TPST-treated compared with untreated | – | amount of AlkPhos-LRP5 bound to the plates [1]: essentially similar results
5 | sclerostin treated in vitro with TPST: human sclerostin (R&D Systems) sulfated in vitro with human TPST1 and PAPS | – | blockage of Wnt induced alkaline phosphatase activity [2]: significantly (P=0.006) more efficient blockage of Wnt induced alkaline phosphate activity
6 | sulfated Dkk1: Dkk1 prepared in insect cells untreated with chlorate (protein, UniProt O94907 32-266, looked up, sulfated, insect cell-expressed, Dkk1 prepared in insect cells untreated with chlorate) Dickkopf-related protein 1: TLNSVLNSNAIKNLPPPLGGAAGHPGSAVSAAPGILYPGGNKYQTIDNYQPYPCAEDEECGTDEYCASPTRGGDAGVQICLACRKRRKRCMRHAMCCPGNYCKNGICVSSDQNHFRGEIEETITESFGNDHSTLDGYSRRTTLSSKMYHTKGQEGSVCLRSSDCASGLCCARHFWSKICKPVLKEGQVCTKHRRKGSHGLEIFQRCYCGEGLSCRIQKDHHQASNSSRLHTCQRH | – | inhibition of Wnt activity (Wnt signaling): greater inhibition of Wnt activity
